Test results taken from publication PMC5384658, “The evolution of Sex-linked barring alleles in chickens involves both regulatory and coding changes in CDKN2A” (PLoS Genetics, 2017).
Values belong to the substance of their own block, whether it stands above or below them.

Tests used:
[1] = target: chicken MDM2_(204-298) (chicken)
[2] = ultracentrifugation, far-UV CD and NMR; ref [21], [22]; cited from earlier work
From the text: The striking phenotypic differences associated with the B0, B1, and B2 alleles imply that the two missense mutations must affect ARF function since all three alleles share the two non-coding changes associated with Sex-linked barring (Fig 1). To learn more about the specific effects of the coding ARF mutations we performed biophysical studies on peptides corresponding to the N-terminus of wild-type and mutant chicken ARF (ARF1-14^WT, ARF1-14^V9D, ARF1-14^R10C) and purified chicken MDM2_204-298. Previously, using a combination of ultracentrifugation, far-UV circular dichroism (CD) and NMR exper ...

p53-luc luciferase reporter activity in U2OS cells transfected with chicken ARF (coding region, pcDNA3.1) carrying R10C, compared to wild-type chicken ARF (% of wild type) [1]: 77
Substance: ARF_(1-14)^R10C peptide (N-terminus of chicken ARF with R10C, B2 allele) (from UniProt A0A8V0X483 1-14)

p53-luc luciferase reporter activity in U2OS cells transfected with chicken ARF (coding region, pcDNA3.1) carrying V9D, compared to wild-type chicken ARF (% of wild type) [1]: 58
Substance: ARF_(1-14)^V9D peptide (N-terminus of chicken ARF with V9D, B1 allele) (from UniProt A0A8V0X483 1-14)

Substance: MDM2_210-304: human MDM2 XP_005268929 residues 210-304, corresponding to chicken MDM2_204-298
structure in free state [2]: intrinsically disordered in their free states
